Patent publication US20180037644A1 (Pfizer, published 2018)
Numbering of substitutions follows the chain as printed. Read-outs that look alike come from different tables or passages of the source.

Columns and labels:
Experiment in all cases: cell-based or functional assay
human IL-33 (mm2) [1] = biological target: T1, human IL-33 (mm2) (human, UniProt O95760 112-270)
T1 chain: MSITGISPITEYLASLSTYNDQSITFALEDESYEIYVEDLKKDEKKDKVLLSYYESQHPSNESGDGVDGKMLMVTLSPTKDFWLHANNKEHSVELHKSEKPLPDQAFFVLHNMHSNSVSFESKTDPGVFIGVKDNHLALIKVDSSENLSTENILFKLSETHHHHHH

human IL-33 WT (R&D) = biological target: T2, human IL-33 WT (R&D) (human, UniProt O95760 112-270)
T2 sequence: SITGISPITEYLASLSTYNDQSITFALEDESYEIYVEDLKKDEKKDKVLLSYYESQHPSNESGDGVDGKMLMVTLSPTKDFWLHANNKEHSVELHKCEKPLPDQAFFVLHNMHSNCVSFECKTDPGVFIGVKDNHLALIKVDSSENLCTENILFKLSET

human IL-33 (mm2) [2] = biological target: T1, human IL-33 (mm2)

B1: IL33-158-152 (antibody, human IgG1, kappa)
heavy: EVQLVESGGGLVQPGGSLRLSCAASGFTFSSYWMYWVRQAPGKGLEWVAAITPNAGEDYYPESVKGRFTISRDNAKNSLYLQMNSLRAEDTAVYYCARGHYYYTSYSLGYWGQGTLVTVSSASTKGPSVFPLAPSSKSTSGGTAALGCLVKDYFPEPVTVSWNSGALTSGVHTFPAVLQSSGLYSLSSVVTVPSSSLGTQTYICNVNHKPSNTKVDKKVEPKSCDKTHTCPPCPAPEAAGAPSVFLFPPKPKDTLMISRTPEVTCVVVDVSHEDPEVKFNWYVDGVEVHNAKTKPREEQYNSTYRVVSVLTVLHQDWLNGKEYKCKVSNKALPAPIEKTISKAKGQPREPQVYTLPPSREEMTKNQVSLTCLVKGFYPSDIAVEWESNGQPENNYKTTPPVLDSDGSFFLYSKLTVDKSRWQQGNVFSCSVMHEALHNHYTQKSLSLSPG
light: DIQMTQSPSSLSASVGDRVTITCKASQNINKHLDWYQQKPGKAPKLLIYFTNNLQTGVPSRFSGSGSGTDFTLTISSLQPEDFATYYCFQYNQGWTFGGGTKVEIKRTVAAPSVFIFPPSDEQLKSGTASVVCLLNNFYPREAKVQWKVDNALQSGNSQESVTEQDSKDSTYSLSSTLTLSKADYEKHKVYACEVTHQGLSSPVTKSFNRGEC
B1 was tested, and the “IC50, HEK293 ST2 NFkB” value (human IL-33 (mm2) [1]) was 0.095 nM and the “IC50, HEK293 ST2 NFkB” value (human IL-33 WT (R&D)) was 0.62 nM.

B2: IL33-167-153 (antibody, human IgG1, kappa)
heavy: B1 heavy with A50S, E62D
light: B1 light with Q93N
With B2 the “IC50, HEK293 ST2 NFkB” value (human IL-33 (mm2) [1]) was 0.129 nM and the “IC50, HEK293 ST2 NFkB” value (human IL-33 WT (R&D)) was 0.749 nM.

B3: 9B3 CDR graft (antibody, human IgG1, kappa, V domains shown)
VH: EVQLVESGGGLVQPGGSLRLSCAASGFTFSNYWMYWVRQAPGKGLEWVASINNDGGNTYYLDSVKGRFTISRDNAKNSLYLQMNSLRAEDTAVYYCARGHYSYSSYSFSYWGQGTLVTVSS
VL: DIQMTQSPSSLSASVGDRVTITCKASHNINKHLDWYQQKPGKAPKLLIYFTNNLQTGVPSRFSGSGSGTDFTLTISSLQPEDFATYYCFQYNSGWTFGGGTKVEIKR
For B3, the “IC50, HEK293 ST2 NFkB” value (human IL-33 (mm2) [2]) was 0.52 nM.

B4: 30B11 CDR graft (antibody, human IgG1, kappa, V domains shown)
VH: EVQLVESGGGLVQPGGSLRLSCAASGFTFTDYWVSWVRQAPGKGLEWVAEIYPNSGADNFNENFKGRFTISRDNAKNSLYLQMNSLRAEDTAVYYCARGPYYYSTQIIFAYWGQGTLVTVSS
VL: DIQMTQSPSSLSASVGDRVTITCKASQNVGNNLAWYQQKPGKAPKLLIYYASNRYTGVPSRFSGSGSGTDFTLTISSLQPEDFATYYCQRIYNSPPTFGGGTKVEIKR
B4 was tested, and the “IC50, HEK293 ST2 NFkB” value (human IL-33 (mm2) [2]) was 0.368 nM.

B5: 30B11 CDR graft_R71V (antibody, human IgG1, kappa, V domains shown)
VH: B4 VH with R72V
VL: B4 VL
B5 was tested, and the “IC50, HEK293 ST2 NFkB” value (human IL-33 (mm2) [2]) was 0.278 nM.
